Measurements from patent US20060228367A1 (AstraZeneca / MedImmune, published 2006).
Residue numbers refer to the chain shown, from its start. Read-outs that look alike come from different tables or passages of the source.

What was measured:
[1] = biological target: T1, soluble histidine-tagged hMPV F protein from NL\1\99 (human metapneumovirus, isolate NL/1/99, UniProt Q6WB98 19-490); assay: Biacore SPR; average of the two F-99-1 surfaces
T1 construct: also called sFNL\1\99; soluble FNL\1\99

[2] = biological target: T2, soluble histidine-tagged hMPV F protein from NL\1\00 (human metapneumovirus, isolate NL/1/00, UniProt Q6WB98 19-490); assay: Biacore SPR (summary table)
T2 construct: the reverse primer ends the F part at ...AEKGNTG before the tag; also called sFNL\1\00; soluble FNL\1\00

[3] = biological target: T1, soluble histidine-tagged hMPV F protein …; assay: Biacore SPR (summary table)
[4] = biological target: T3, F protein of hMPV strain NL\17\00 (subtype A2), on virus (human metapneumovirus, isolate NL/17/00, UniProt Q6WB98 19-539); assay: cell-based or functional assay
[5] = biological target: T4, F protein of hMPV strain NL\1\99 (subtype B1), on virus (human metapneumovirus, isolate NL/1/99, UniProt Q6WB98 19-539); assay: cell-based or functional assay
[6] = biological target: T5, F protein of hMPV strain NL\1\00 (subtype A1), on virus (human metapneumovirus, isolate NL/1/00, UniProt Q6WB98 19-538); assay: cell-based or functional assay
[7] = biological target: T6, F protein of hMPV strain NL\1\94 (subtype B2), on virus (human metapneumovirus, isolate NL/1/94, UniProt Q6WB98 19-539); assay: cell-based or functional assay
[8] = biological target: T1, soluble histidine-tagged hMPV F protein …; assay: Biacore SPR; F-99-1 immobilised at 80 RU, mAb injected
[9] = biological target: T1, soluble histidine-tagged hMPV F protein …; assay: Biacore SPR (comparison table; virus type B)
[10] = biological target: T3, F protein of hMPV strain NL\17\00 …; assay: cell-based or functional assay; remark: listed apart in the source
[11] = biological target: T4, F protein of hMPV strain NL\1\99 …; assay: cell-based or functional assay; remark: listed apart in the source
[12] = biological target: T5, F protein of hMPV strain NL\1\00 …; assay: cell-based or functional assay; remark: listed apart in the source
[13] = biological target: T6, F protein of hMPV strain NL\1\94 …; assay: cell-based or functional assay; remark: listed apart in the source
[14] = biological target: T4, F protein of hMPV strain NL\1\99 …; assay: cell-based or functional assay; remark: listed apart in the source
[15] = biological target: T5, F protein of hMPV strain NL\1\00 …; assay: cell-based or functional assay; remark: listed apart in the source
[16] = biological target: T1, soluble histidine-tagged hMPV F protein …; assay: Biacore SPR; F-99-1 immobilised at 300 RU, mAb injected
[17] = biological target: T2, soluble histidine-tagged hMPV F protein …; assay: Biacore 3000 SPR; antigen immobilised on CM5 at 134 RU, mAb injected
[18] = biological target: T2, soluble histidine-tagged hMPV F protein …; assay: Biacore SPR (comparison table; virus type A)
[19] = biological target: T1, soluble histidine-tagged hMPV F protein …; assay: Biacore 3000 SPR; antigen immobilised on CM5 at 80 RU, mAb injected
[20] = biological target: T2, soluble histidine-tagged hMPV F protein …; assay: Biacore SPR; F-00-1 immobilised at 134 RU, mAb injected
[21] = biological target: T3, F protein of hMPV strain NL\17\00 …; assay: cell-based or functional assay; remark: listed apart in the source
[22] = biological target: T4, F protein of hMPV strain NL\1\99 …; assay: cell-based or functional assay; remark: listed apart in the source
[23] = biological target: T5, F protein of hMPV strain NL\1\00 …; assay: cell-based or functional assay; remark: listed apart in the source
[24] = biological target: T6, F protein of hMPV strain NL\1\94 …; assay: cell-based or functional assay; remark: listed apart in the source
[25] = biological target: T1, soluble histidine-tagged hMPV F protein …; assay: Biacore SPR; F-99-1 immobilised at 146 RU, mAb injected

B1: monoclonal antibody 168-A5-338-284 (antibody, V domains shown)
VH: QVQLKESGPGLVAPSQSLSITCTVSGFSLSSYGVHWVRQSPGKGLEWLGVMWGDGSTNYHSGLISRLTISKDSSKSQVFLKLNSLQTDDTATYYCGKSFGVYAVDYWGQGTSVTVSS
VL: DIQMTQTTSSLSASLGDRVTINCRASQDVNNYLNWYQQKPDGTVKLLIYYTSMLHSGVPSRFSGSGSETDYSLTITNLEQEDIATYFCQQGETLPPTFGGGTKVEIK
notes: Mouse hybridoma antibody purified on protein A; also called mAb338
B1 showed a Kd [1] of 1.73 nM, a koff [1] of 0.000282 s⁻¹ and a kon [1] of 163000 M⁻¹ s⁻¹. For the same binder, the Kd [2] was 1.7 nM, the Kd [3] was 1.4 nM and the “IC50 (neutralization titer)” value [4] was 0.81 µg/mL. For the same binder, the “IC50 (neutralization titer)” value [5] was 0.03 µg/mL, the “IC50 (neutralization titer)” value [6] was 0.375 µg/mL and the “IC50 (neutralization titer)” value [7] was 0.165 µg/mL. For the same binder, the Kd [8] was 1.42 nM, the koff [8] was 0.000272 s⁻¹ and the kon [8] was 192000 M⁻¹ s⁻¹. The Kd [9] was 1.42 nM, the kon [9] was 192000 M⁻¹ s⁻¹ and the “IC50 (virus neutralization)” value [10] was 0.8 µg/mL. For the same binder, the “IC50 (virus neutralization)” value [11] was 0.03 µg/mL, the “IC50 (virus neutralization)” value [12] was 0.38 µg/mL and the “IC50 (virus neutralization)” value [13] was 0.17 µg/mL. For the same binder, the “IC50 in vitro neutralization” value [14] was 0.03 µg/mL, the “IC50 in vitro neutralization” value [15] was 0.4 µg/mL and the Kd [16] was 2.18 nM. The koff [16] was 0.000293 s⁻¹, the kon [16] was 134000 M⁻¹ s⁻¹ and the Kd [17] was 1.74 nM. It also gave a koff [17] of 0.000276 s⁻¹, a kon [17] of 158000 M⁻¹ s⁻¹ and a Kd [18] of 1.74 nM. It also gave a kon [18] of 158000 M⁻¹ s⁻¹, a Kd [19] of 1.42 nM and a koff [19] of 0.000272 s⁻¹. For the same binder, the kon [19] was 192000 M⁻¹ s⁻¹, the Kd [20] was 1.74 nM and the koff [20] was 0.000276 s⁻¹. The kon [20] was 158000 M⁻¹ s⁻¹, the “IC50 (neutralization titer)” value [21] was 5.4 nM and the “IC50 (neutralization titer)” value [22] was 0.2 nM. The “IC50 (neutralization titer)” value [23] was 2.5 nM and the “IC50 (neutralization titer)” value [24] was 1.1 nM.

B2: monoclonal antibody 168-A5-234-114 (antibody, V domains shown)
VH: B1 VH with S30T, S31D, H35S, S40P, M51I, S56N, G62A, T68S, S73N, V104M
VL: B1 VL with D1E, A25T, V29T, L33I, E68G, T76S, E92D
notes: Mouse hybridoma antibody purified on protein A; also called mAb234; mAb 234
In the case of B2, the Kd [1] is reported as 2.83 nM, the koff [1] is reported as 0.000382 s⁻¹ and the kon [1] is reported as 135000 M⁻¹ s⁻¹. The Kd [2] was 4.5 nM, the Kd [3] was 2.4 nM and the “IC50 (neutralization titer)” value [4] was 1.16 µg/mL. For the same binder, the “IC50 (neutralization titer)” value [5] was 0.0075 µg/mL, the “IC50 (neutralization titer)” value [6] was 0.585 µg/mL and the “IC50 (neutralization titer)” value [7] was 0.18 µg/mL. For the same binder, the Kd [8] was 2.41 nM, the koff [8] was 0.000463 s⁻¹ and the kon [8] was 192000 M⁻¹ s⁻¹. For the same binder, the Kd [9] was 2.41 nM, the kon [9] was 192000 M⁻¹ s⁻¹ and the “IC50 (virus neutralization)” value [10] was 1.2 µg/mL. For the same binder, the “IC50 (virus neutralization)” value [11] was 0.01 µg/mL, the “IC50 (virus neutralization)” value [12] was 0.59 µg/mL and the “IC50 (virus neutralization)” value [13] was 0.18 µg/mL. For the same binder, the “IC50 in vitro neutralization” value [14] was 0.01 µg/mL, the “IC50 in vitro neutralization” value [15] was 0.6 µg/mL and the Kd [25] was 3.83 nM. It also gave a koff [25] of 0.000302 s⁻¹, a kon [25] of 78900 M⁻¹ s⁻¹ and a Kd [17] of 4.49 nM. For the same binder, the koff [17] was 0.000352 s⁻¹, the kon [17] was 78300 M⁻¹ s⁻¹ and the Kd [18] was 4.49 nM. The kon [18] was 783000 M⁻¹ s⁻¹, the Kd [19] was 2.41 nM and the koff [19] was 0.000463 s⁻¹. The kon [19] was 192000 M⁻¹ s⁻¹, the Kd [20] was 4.49 nM and the koff [20] was 0.000352 s⁻¹. For the same binder, the kon [20] was 78300 M⁻¹ s⁻¹, the “IC50 (neutralization titer)” value [21] was 7.7 nM and the “IC50 (neutralization titer)” value [22] was 0.05 nM. The “IC50 (neutralization titer)” value [23] was 3.9 nM and the “IC50 (neutralization titer)” value [24] was 1.2 nM.
